Measured values from US20250277020A1 (Boehringer Ingelheim, published 2025).

T1: Full-length human CTGF (human, UniProt P29279 27-349)
T1 construct: Corresponds to NCBI NP_001892.1 with the signal peptide omitted; purchased from R&D Systems; also called hCTGF full length; full length CTGF
T1 sequence: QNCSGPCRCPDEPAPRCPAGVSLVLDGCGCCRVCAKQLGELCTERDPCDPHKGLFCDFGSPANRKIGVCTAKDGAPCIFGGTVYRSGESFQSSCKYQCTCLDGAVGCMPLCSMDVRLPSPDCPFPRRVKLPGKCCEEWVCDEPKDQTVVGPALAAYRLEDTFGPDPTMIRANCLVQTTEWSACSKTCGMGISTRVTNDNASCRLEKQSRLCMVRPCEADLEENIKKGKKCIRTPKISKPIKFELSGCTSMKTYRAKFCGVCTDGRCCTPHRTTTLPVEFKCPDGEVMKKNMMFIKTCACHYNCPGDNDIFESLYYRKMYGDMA


Biological target: T1, Full-length human CTGF
Test: SPR, full length CTGF

Binder | binding result | Kd [pM]
A33 (antibody, human IgG1, kappa, L234A L235A, V domains shown) VH: EVQLVESGGGLVQPGGSLRLSCAASGFTFSDYYMAWVRQAPGKGLEWVANINYEGSRTDLLESLKSRFTISRDNAKNSVYLQMNSLRAEDTAVYYCARDTSRGSYFDVWGAGTTVTVSS VL: VVMTQTPLSLSVSLGDQASISCKSSQSIVHYNENTYLEWYLQKPGQSPQLLIYKVSSRFSGVPDRFSGSGSGTDFTLKISRVEAEDLGVYYCFQGSHFPLTFGQGTKLEIKR | no binding | –
A14 (antibody, human IgG1, kappa, L234A L235A) light: VVMTQTPLSLSVSLGDQASISCKSSQSIVHYNEKTYLEWYLQKPGQSPQLLIYKVSSRASGVPDRFSGSGSGTDFTLKISRVEAEDLGVYYCFQGSHFPLTFGQGTKLEIKRTVAAPSVFIFPPSDEQLKSGTASVVCLLNNFYPREAKVQWKVDNALQSGNSQESVTEQDSKDSTYSLSSTLTLSKADYEKHKVYACEVTHQGLSSPVTKSFNRGEC heavy: not shown | – | 220
A3 (antibody, human IgG1, kappa, L234A L235A, V domains shown) VH: EVQLVESGGGLVQPGGSLRLSCAASGFTFSDYYMAWVRQAPGKGLEWVANINYEGSRTDLLASLKSRFTISRDNAKNSVYLQMNSLRAEDTAVYYCARDTSRGSYFDVWGAGTTVTVSS VL: VVMTQTPLSLSVSLGDQASISCKSSQSIVHYNEKTYLEWYLQKPGQSPQLLIYKVSSRFSGVPDRFSGSGSGTDFTLKISRVEAEDLGVYYCFQGSHFPLTFGQGTKLEIKR | – | 230
A6 (antibody, human IgG1, kappa, L234A L235A, V domains shown) VH: EVQLVESGGGLVQPGGSLRLSCAASGFTFSDYYMAWVRQAPGKGLEWVANINYEGSRTDLLDSLKSRFTISRDNAKNSVYLQMNSLRAEDTAVYYCARDTSRGSYFDVWGAGTTVTVSS VL: VVMTQTPLSLSVSLGDQASISCKSSQSIVHYNEKTYLEWYLQKPGQSPQLLIYKVSSRFSGVPDRFSGSGSGTDFTLKISRVEAEDLGVYYCFQGSHFPLTFGQGTKLEIKR | – | 320
A17 (antibody, human IgG1, kappa, L234A L235A, V domains shown) VH: EVQLVESGGGLVQPGGSLRLSCAASGFTFSDYYMAWVRQAPGKGLEWVANINYEGSRTDLLESLKSRFTISRDNAKNSVYLQMNSLRAEDTAVYYCARDTSRGSYFDVWGAGTTVTVSS VL: VVMTQTPLSLSVSLGDQASISCKSSQSIVHYNGKTYLEWYLQKPGQSPQLLIYKVSSRFSGVPDRFSGSGSGTDFTLKISRVEAEDLGVYYCFQGSHFPLTFGQGTKLEIKR | – | 200
A19 (antibody, human IgG1, kappa, L234A L235A, V domains shown) VH: EVQLVESGGGLVQPGGSLRLSCAASGFTFSDYYMAWVRQAPGKGLEWVANINYEGSRTDLLASLKSRFTISRDNAKNSVYLQMNSLRAEDTAVYYCARDTSRGSYFDVWGAGTTVTVSS VL: VVMTQTPLSLSVSLGDQASISCKSSQSIVHYNGKTYLEWYLQKPGQSPQLLIYKVSSRFSGVPDRFSGSGSGTDFTLKISRVEAEDLGVYYCFQGSHFPLTFGQGTKLEIKR | – | 170
A4 (antibody, human IgG1, kappa, L234A L235A, V domains shown) VH: EVQLVESGGGLVQPGGSLRLSCAASGFTFSDYYMAWVRQAPGKGLEWVANINYYGSRTDLLASLKSRFTISRDNAKNSVYLQMNSLRAEDTAVYYCARDTSRGSYFDVWGAGTTVTVSS VL: VVMTQTPLSLSVSLGDQASISCKSSQSIVHYNEKTYLEWYLQKPGQSPQLLIYKVSSRFSGVPDRFSGSGSGTDFTLKISRVEAEDLGVYYCFQGSHFPLTFGQGTKLEIKR | – | 220
A18 (antibody, human IgG1, kappa, L234A L235A, V domains shown) VH: EVQLVESGGGLVQPGGSLRLSCAASGFTFSDYYMAWVRQAPGKGLEWVANINYYGSRTDLLESLKSRFTISRDNAKNSVYLQMNSLRAEDTAVYYCARDTSRGSYFDVWGAGTTVTVSS VL: VVMTQTPLSLSVSLGDQASISCKSSQSIVHYNGKTYLEWYLQKPGQSPQLLIYKVSSRFSGVPDRFSGSGSGTDFTLKISRVEAEDLGVYYCFQGSHFPLTFGQGTKLEIKR | – | 190
A5 (antibody, human IgG1, kappa, L234A L235A) light: VVMTQTPLSLSVSLGDQASISCKSSQSIVHYNEKTYLEWYLQKPGQSPQLLIYKVSSRFSGVPDRFSGSGSGTDFTLKISRVEAEDLGVYYCFQGSHFPLTFGQGTKLEIKRTVAAPSVFIFPPSDEQLKSGTASVVCLLNNFYPREAKVQWKVDNALQSGNSQESVTEQDSKDSTYSLSSTLTLSKADYEKHKVYACEVTHQGLSSPVTKSFNRGEC heavy: not shown | – | 320
A12 (antibody, human IgG1, kappa, L234A L235A) light: VVMTQTPLSLSVSLGDQASISCKSSQSIVHYNEKTYLEWYLQKPGQSPQLLIYKVSSRASGVPDRFSGSGSGTDFTLKISRVEAEDLGVYYCFQGSHFPLTFGQGTKLEIKRTVAAPSVFIFPPSDEQLKSGTASVVCLLNNFYPREAKVQWKVDNALQSGNSQESVTEQDSKDSTYSLSSTLTLSKADYEKHKVYACEVTHQGLSSPVTKSFNRGEC heavy: not shown | – | 170
A1 (antibody, human IgG1, kappa, L234A L235A, V domains shown) VH: EVQLVESGGGLVQPGGSLRLSCAASGFTFSDYYMAWVRQAPGKGLEWVANINYEGSRTDLLESLKSRFTISRDNAKNSVYLQMNSLRAEDTAVYYCARDTSRGSYFDVWGAGTTVTVSS VL: VVMTQTPLSLSVSLGDQASISCKSSQSIVHYNEKTYLEWYLQKPGQSPQLLIYKVSSRFSGVPDRFSGSGSGTDFTLKISRVEAEDLGVYYCFQGSHFPLTFGQGTKLEIKR | – | 290
A8 (antibody, human IgG1, kappa, L234A L235A) light: VVMTQTPLSLSVSLGDQASISCKSSQSIVHYNEKTYLEWYLQKPGQSPQLLIYKVSSRFSGVPDRFSGSGSGTDFTLKISRVEAEDLGVYYCFQGSHFPLTFGQGTKLEIKRTVAAPSVFIFPPSDEQLKSGTASVVCLLNNFYPREAKVQWKVDNALQSGNSQESVTEQDSKDSTYSLSSTLTLSKADYEKHKVYACEVTHQGLSSPVTKSFNRGEC heavy: not shown | – | 340
A16 (antibody, human IgG1, kappa, L234A L235A) light: VVMTQTPLSLSVSLGDQASISCKSSQSIVHYNEKTYLEWYLQKPGQSPQLLIYKVSSRASGVPDRFSGSGSGTDFTLKISRVEAEDLGVYYCFQGSHFPLTFGQGTKLEIKRTVAAPSVFIFPPSDEQLKSGTASVVCLLNNFYPREAKVQWKVDNALQSGNSQESVTEQDSKDSTYSLSSTLTLSKADYEKHKVYACEVTHQGLSSPVTKSFNRGEC heavy: not shown | – | 240
A21 (antibody, human IgG1, kappa, L234A L235A) light: VVMTQTPLSLSVSLGDQASISCKSSQSIVHYNGKTYLEWYLQKPGQSPQLLIYKVSSRFSGVPDRFSGSGSGTDFTLKISRVEAEDLGVYYCFQGSHFPLTFGQGTKLEIKRTVAAPSVFIFPPSDEQLKSGTASVVCLLNNFYPREAKVQWKVDNALQSGNSQESVTEQDSKDSTYSLSSTLTLSKADYEKHKVYACEVTHQGLSSPVTKSFNRGEC heavy: not shown | – | 250
A11 (antibody, human IgG1, kappa, L234A L235A) light: VVMTQTPLSLSVSLGDQASISCKSSQSIVHYNEKTYLEWYLQKPGQSPQLLIYKVSSRASGVPDRFSGSGSGTDFTLKISRVEAEDLGVYYCFQGSHFPLTFGQGTKLEIKRTVAAPSVFIFPPSDEQLKSGTASVVCLLNNFYPREAKVQWKVDNALQSGNSQESVTEQDSKDSTYSLSSTLTLSKADYEKHKVYACEVTHQGLSSPVTKSFNRGEC heavy: not shown | – | 170
A9 (antibody, human IgG1, kappa, L234A L235A) light: VVMTQTPLSLSVSLGDQASISCKSSQSIVHYNEKTYLEWYLQKPGQSPQLLIYKVSSRASGVPDRFSGSGSGTDFTLKISRVEAEDLGVYYCFQGSHFPLTFGQGTKLEIKRTVAAPSVFIFPPSDEQLKSGTASVVCLLNNFYPREAKVQWKVDNALQSGNSQESVTEQDSKDSTYSLSSTLTLSKADYEKHKVYACEVTHQGLSSPVTKSFNRGEC heavy: not shown | – | 210
A7 (antibody, human IgG1, kappa, L234A L235A, V domains shown) VH: EVQLVESGGGLVQPGGSLRLSCAASGFTFSDYYMAWVRQAPGKGLEWVANINYDGSRTDLLESLKSRFTISRDNAKNSVYLQMNSLRAEDTAVYYCARDTSRGSYFDVWGAGTTVTVSS VL: VVMTQTPLSLSVSLGDQASISCKSSQSIVHYNEKTYLEWYLQKPGQSPQLLIYKVSSRFSGVPDRFSGSGSGTDFTLKISRVEAEDLGVYYCFQGSHFPLTFGQGTKLEIKR | – | 330
A15 (antibody, human IgG1, kappa, L234A L235A) light: VVMTQTPLSLSVSLGDQASISCKSSQSIVHYNEKTYLEWYLQKPGQSPQLLIYKVSSRASGVPDRFSGSGSGTDFTLKISRVEAEDLGVYYCFQGSHFPLTFGQGTKLEIKRTVAAPSVFIFPPSDEQLKSGTASVVCLLNNFYPREAKVQWKVDNALQSGNSQESVTEQDSKDSTYSLSSTLTLSKADYEKHKVYACEVTHQGLSSPVTKSFNRGEC heavy: not shown | – | 260
A2 (antibody, human IgG1, kappa, L234A L235A, V domains shown) VH: EVQLVESGGGLVQPGGSLRLSCAASGFTFSDYYMAWVRQAPGKGLEWVANINYYGSRTDLLESLKSRFTISRDNAKNSVYLQMNSLRAEDTAVYYCARDTSRGSYFDVWGAGTTVTVSS VL: VVMTQTPLSLSVSLGDQASISCKSSQSIVHYNEKTYLEWYLQKPGQSPQLLIYKVSSRFSGVPDRFSGSGSGTDFTLKISRVEAEDLGVYYCFQGSHFPLTFGQGTKLEIKR | – | 250
A10 (antibody, human IgG1, kappa, L234A L235A) light: VVMTQTPLSLSVSLGDQASISCKSSQSIVHYNEKTYLEWYLQKPGQSPQLLIYKVSSRASGVPDRFSGSGSGTDFTLKISRVEAEDLGVYYCFQGSHFPLTFGQGTKLEIKRTVAAPSVFIFPPSDEQLKSGTASVVCLLNNFYPREAKVQWKVDNALQSGNSQESVTEQDSKDSTYSLSSTLTLSKADYEKHKVYACEVTHQGLSSPVTKSFNRGEC heavy: not shown | – | 190
A20 (antibody, human IgG1, kappa, L234A L235A, V domains shown) VH: EVQLVESGGGLVQPGGSLRLSCAASGFTFSDYYMAWVRQAPGKGLEWVANINYYGSRTDLLASLKSRFTISRDNAKNSVYLQMNSLRAEDTAVYYCARDTSRGSYFDVWGAGTTVTVSS VL: VVMTQTPLSLSVSLGDQASISCKSSQSIVHYNGKTYLEWYLQKPGQSPQLLIYKVSSRFSGVPDRFSGSGSGTDFTLKISRVEAEDLGVYYCFQGSHFPLTFGQGTKLEIKR | – | 180
